# Measurements: patent US20240117018A1
# Assays:
# Test in all cases: cell-based or functional assay
# [1] = target: HIV-1 Env of pseudovirus BJOX015000.11.5 (HIV-1)
# [2] = target: HIV-1 Env of pseudovirus T257-31 (HIV-1)
# [3] = target: HIV-1 Env of pseudovirus A07412M1.vrc12 (HIV-1)
# [4] = target: HIV-1 Env of pseudovirus 3817.v2.c59 (HIV-1)
# [5] = target: HIV-1 Env of pseudovirus X1632_S2_B10 (HIV-1)
# [6] = target: HIV-1 Env of pseudovirus P0402_c2_11 (HIV-1)
# [7] = target: HIV-1 Env of pseudovirus C3347.c11 (HIV-1)
# [8] = target: HIV-1 Env of pseudovirus BJOX009000.02.4 (HIV-1)
# [9] = target: HIV-1 Env of pseudovirus BJOX028000.10.3 (HIV-1)
# [10] = target: HIV-1 Env of pseudovirus 3016.v5.c45 (HIV-1)
# [11] = target: HIV-1 Env of pseudovirus 6041.v3.c23 (HIV-1)
# [12] = target: HIV-1 Env of pseudovirus 231966.c02 (HIV-1)
# [13] = target: HIV-1 Env of pseudovirus X1254_c3 (HIV-1)
# [14] = target: HIV-1 Env of pseudovirus BJOX010000.06.2 (HIV-1)
# [15] = target: HIV-1 Env of pseudovirus 211-9 (HIV-1)
# [16] = target: HIV-1 Env of pseudovirus T255-34 (HIV-1)
# [17] = target: HIV-1 Env of pseudovirus 89-F1_2_25 (HIV-1)
# [18] = target: HIV-1 Env of pseudovirus R2184.c04 (HIV-1)
# [19] = target: HIV-1 Env of pseudovirus 0815.v3.c3 (HIV-1)
# [20] = target: HIV-1 Env of pseudovirus 235-47 (HIV-1)
# [21] = target: HIV-1 Env of pseudovirus X1193_c1 (HIV-1)
# [22] = target: HIV-1 Env of pseudovirus 191955_A11 (HIV-1)
# [23] = target: HIV-1 Env of pseudovirus R3265.c06 (HIV-1)
# [24] = target: HIV-1 Env of pseudovirus 9004SS_A3_4 (HIV-1)
# [25] = target: HIV-1 Env of pseudovirus 263-8 (HIV-1)
# [26] = target: HIV-1 Env of pseudovirus 6811.v7.c18 (HIV-1)
# [27] = target: HIV-1 Env of pseudovirus BJOX025000.01.1 (HIV-1)
# [28] = target: HIV-1 Env of pseudovirus 6545.v4.c1 (HIV-1)
# [29] = target: HIV-1 Env of pseudovirus T278-50 (HIV-1)
# [30] = target: HIV-1 Env of pseudovirus 6952.v1.c20 (HIV-1)
# [31] = target: HIV-1 Env of pseudovirus 231965.c01 (HIV-1)
# [32] = target: HIV-1 Env of pseudovirus C1080.c03 (HIV-1)
# [33] = target: HIV-1 Env of pseudovirus X2131_C1_B5 (HIV-1)
# [34] = target: HIV-1 Env of pseudovirus X2088_c9 (HIV-1)
# [35] = target: HIV-1 Env of pseudovirus 6540.v4.c1 (HIV-1)
# [36] = target: HIV-1 Env of pseudovirus R1166.c01 (HIV-1)
substance,measurement,setting,value
N49P9.1 (antibody),neutralization IC50,[1],0.068 µg/mL
same,neutralization IC80,[1],0.478 µg/mL
same,neutralization MPI,[1],100
same,neutralization IC50,[2],0.508 µg/mL
same,neutralization IC80,[2],1.82 µg/mL
same,neutralization MPI,[2],100
same,neutralization IC50,[3],0.189 µg/mL
same,neutralization IC80,[3],0.947 µg/mL
same,neutralization MPI,[3],100
same,neutralization IC50,[4],1.35 µg/mL
same,neutralization IC80,[4],8.26 µg/mL
same,neutralization MPI,[4],95
same,neutralization IC50,[5],> 50 µg/mL
same,neutralization IC80,[5],> 50 µg/mL
same,neutralization MPI,[5],10
same,neutralization IC50,[6],0.06 µg/mL
same,neutralization IC80,[6],0.163 µg/mL
same,neutralization MPI,[6],100
same,neutralization IC50,[7],0.029 µg/mL
same,neutralization IC80,[7],0.083 µg/mL
same,neutralization MPI,[7],100
same,neutralization IC50,[8],0.965 µg/mL
same,neutralization IC80,[8],3.93 µg/mL
same,neutralization MPI,[8],100
same,neutralization IC50,[9],0.04 µg/mL
same,neutralization IC80,[9],0.2 µg/mL
same,neutralization MPI,[9],100
same,neutralization IC50,[10],0.076 µg/mL
same,neutralization IC80,[10],0.223 µg/mL
same,neutralization MPI,[10],100
same,neutralization IC50,[11],0.282 µg/mL
same,neutralization IC80,[11],6.78 µg/mL
same,neutralization MPI,[11],90
same,neutralization IC50,[12],0.067 µg/mL
same,neutralization IC80,[12],0.237 µg/mL
same,neutralization MPI,[12],100
same,neutralization IC50,[13],0.101 µg/mL
same,neutralization IC80,[13],0.278 µg/mL
same,neutralization MPI,[13],100
same,neutralization IC50,[14],0.883 µg/mL
same,neutralization IC80,[14],4.26 µg/mL
same,neutralization MPI,[14],100
same,neutralization IC50,[15],0.17 µg/mL
same,neutralization IC80,[15],0.579 µg/mL
same,neutralization MPI,[15],100
same,neutralization IC50,[16],0.092 µg/mL
same,neutralization IC80,[16],0.286 µg/mL
same,neutralization MPI,[16],100
same,neutralization IC50,[17],> 50 µg/mL
same,neutralization IC80,[17],> 50 µg/mL
same,neutralization MPI,[17],23
same,neutralization IC50,[18],0.019 µg/mL
same,neutralization IC80,[18],0.057 µg/mL
same,neutralization MPI,[18],100
same,neutralization IC50,[19],0.012 µg/mL
same,neutralization IC80,[19],0.041 µg/mL
same,neutralization MPI,[19],100
same,neutralization IC50,[20],0.045 µg/mL
same,neutralization IC80,[20],0.352 µg/mL
same,neutralization MPI,[20],98
same,neutralization IC50,[21],0.042 µg/mL
same,neutralization IC80,[21],0.15 µg/mL
same,neutralization MPI,[21],100
same,neutralization IC50,[22],> 50 µg/mL
same,neutralization IC80,[22],> 50 µg/mL
same,neutralization MPI,[22],26
same,neutralization IC50,[23],0.469 µg/mL
same,neutralization IC80,[23],1.62 µg/mL
same,neutralization MPI,[23],100
same,neutralization IC50,[24],0.323 µg/mL
same,neutralization IC80,[24],1.13 µg/mL
same,neutralization MPI,[24],100
same,neutralization IC50,[25],0.049 µg/mL
same,neutralization IC80,[25],0.17 µg/mL
same,neutralization MPI,[25],100
same,neutralization IC50,[26],0.398 µg/mL
same,neutralization IC80,[26],1.76 µg/mL
same,neutralization MPI,[26],97
same,neutralization IC50,[27],0.131 µg/mL
same,neutralization IC80,[27],0.67 µg/mL
same,neutralization MPI,[27],100
same,neutralization IC50,[28],> 50 µg/mL
same,neutralization IC80,[28],> 50 µg/mL
same,neutralization MPI,[28],6
same,neutralization IC50,[29],> 50 µg/mL
same,neutralization IC80,[29],> 50 µg/mL
same,neutralization MPI,[29],5
same,neutralization IC50,[30],0.119 µg/mL
same,neutralization IC80,[30],0.389 µg/mL
same,neutralization MPI,[30],100
same,neutralization IC50,[31],0.474 µg/mL
same,neutralization IC80,[31],2.24 µg/mL
same,neutralization MPI,[31],100
same,neutralization IC50,[32],0.156 µg/mL
same,neutralization IC80,[32],0.939 µg/mL
same,neutralization MPI,[32],100
same,neutralization IC50,[33],0.143 µg/mL
same,neutralization IC80,[33],0.476 µg/mL
same,neutralization MPI,[33],100
same,neutralization IC50,[34],0.091 µg/mL
same,neutralization IC80,[34],0.392 µg/mL
same,neutralization MPI,[34],100
same,neutralization IC50,[35],> 50 µg/mL
same,neutralization IC80,[35],> 50 µg/mL
same,neutralization MPI,[35],30
same,neutralization IC50,[36],0.073 µg/mL
same,neutralization IC80,[36],0.232 µg/mL
same,neutralization MPI,[36],100
PGDM1400 (antibody),IC50 (Titer in TZM.bl cells),[1],0.52 µg/mL
same,IC80 (Titer in TZM.bl cells),[1],10.6 µg/mL
same,neutralization IC50,[2],0.002 µg/mL
same,neutralization IC80,[2],0.031 µg/mL
same,IC50 (Titer in TZM.bl cells),[3],0.032 µg/mL
same,IC80 (Titer in TZM.bl cells),[3],0.127 µg/mL
same,IC50 (Titer in TZM.bl cells),[4],> 50 µg/mL
same,IC80 (Titer in TZM.bl cells),[4],> 50 µg/mL
same,IC50 (Titer in TZM.bl cells),[5],0.055 µg/mL
same,IC80 (Titer in TZM.bl cells),[5],1.45 µg/mL
same,IC50 (Titer in TZM.bl cells),[6],0.01 µg/mL
same,IC80 (Titer in TZM.bl cells),[6],0.033 µg/mL
same,IC50 (Titer in TZM.bl cells),[7],0.011 µg/mL
same,IC80 (Titer in TZM.bl cells),[7],0.051 µg/mL
same,IC50 (Titer in TZM.bl cells),[8],0.443 µg/mL
same,IC80 (Titer in TZM.bl cells),[8],1.29 µg/mL
same,IC50 (Titer in TZM.bl cells),[9],0.072 µg/mL
same,IC80 (Titer in TZM.bl cells),[9],0.963 µg/mL
same,IC50 (Titer in TZM.bl cells),[10],> 50 µg/mL
same,IC80 (Titer in TZM.bl cells),[10],> 50 µg/mL
same,IC50 (Titer in TZM.bl cells),[11],0.013 µg/mL
same,IC80 (Titer in TZM.bl cells),[11],0.289 µg/mL
same,IC50 (Titer in TZM.bl cells),[12],0.001 µg/mL
same,IC80 (Titer in TZM.bl cells),[12],0.004 µg/mL
same,IC50 (Titer in TZM.bl cells),[13],> 50 µg/mL
same,IC80 (Titer in TZM.bl cells),[13],> 50 µg/mL
same,IC50 (Titer in TZM.bl cells),[14],0.605 µg/mL
same,IC80 (Titer in TZM.bl cells),[14],5.87 µg/mL
same,IC50 (Titer in TZM.bl cells),[15],0.088 µg/mL
same,IC80 (Titer in TZM.bl cells),[15],0.393 µg/mL
same,IC50 (Titer in TZM.bl cells),[16],0.654 µg/mL
same,IC80 (Titer in TZM.bl cells),[16],> 50 µg/mL
same,IC50 (Titer in TZM.bl cells),[17],0.001 µg/mL
same,IC80 (Titer in TZM.bl cells),[17],0.005 µg/mL
same,IC50 (Titer in TZM.bl cells),[18],0.003 µg/mL
same,IC80 (Titer in TZM.bl cells),[18],0.012 µg/mL
same,IC50 (Titer in TZM.bl cells),[19],> 50 µg/mL
same,IC80 (Titer in TZM.bl cells),[19],> 50 µg/mL
same,IC50 (Titer in TZM.bl cells),[20],0.005 µg/mL
same,IC80 (Titer in TZM.bl cells),[20],0.032 µg/mL
same,IC50 (Titer in TZM.bl cells),[21],0.219 µg/mL
same,IC80 (Titer in TZM.bl cells),[21],0.781 µg/mL
same,neutralization IC50,[22],0.001 µg/mL
same,neutralization IC80,[22],0.021 µg/mL
same,IC50 (Titer in TZM.bl cells),[23],0.013 µg/mL
same,IC80 (Titer in TZM.bl cells),[23],0.041 µg/mL
same,neutralization IC50,[24],< 0.001 µg/mL
same,neutralization IC80,[24],0.002 µg/mL
same,neutralization IC50,[25],0.02 µg/mL
same,neutralization IC80,[25],0.103 µg/mL
same,IC50 (Titer in TZM.bl cells),[26],> 50 µg/mL
same,IC80 (Titer in TZM.bl cells),[26],> 50 µg/mL
same,IC50 (Titer in TZM.bl cells),[27],0.087 µg/mL
same,IC80 (Titer in TZM.bl cells),[27],0.573 µg/mL
same,IC50 (Titer in TZM.bl cells),[28],0.003 µg/mL
same,IC80 (Titer in TZM.bl cells),[28],0.039 µg/mL
same,IC50 (Titer in TZM.bl cells),[29],0.574 µg/mL
same,IC80 (Titer in TZM.bl cells),[29],4.94 µg/mL
same,IC50 (Titer in TZM.bl cells),[30],0.501 µg/mL
same,IC80 (Titer in TZM.bl cells),[30],11.8 µg/mL
same,IC50 (Titer in TZM.bl cells),[31],0.025 µg/mL
same,IC80 (Titer in TZM.bl cells),[31],1.28 µg/mL
same,IC50 (Titer in TZM.bl cells),[32],< 0.001 µg/mL
same,IC80 (Titer in TZM.bl cells),[32],< 0.001 µg/mL
same,IC50 (Titer in TZM.bl cells),[33],0.128 µg/mL
same,IC80 (Titer in TZM.bl cells),[33],0.568 µg/mL
same,IC50 (Titer in TZM.bl cells),[34],> 50 µg/mL
same,IC80 (Titer in TZM.bl cells),[34],> 50 µg/mL
same,IC50 (Titer in TZM.bl cells),[35],0.004 µg/mL
same,IC80 (Titer in TZM.bl cells),[35],0.028 µg/mL
same,IC50 (Titer in TZM.bl cells),[36],1.43 µg/mL
same,IC80 (Titer in TZM.bl cells),[36],6.92 µg/mL
